From paper PMC2592828 come the findings set out here.

Experiment in all cases: far-Western, overlay or dot blot
Assay [1] concerns the target recombinant IC-2C T89D mutant.
For assay [2], the target named is recombinant IC-2C T89E mutant.
Assay [3] deals with p150^Glued subunit of dynactin (endogenous, band in total extracts) (UniProt Q14203).
In assay [4] the target is zw10 (endogenous, ~90-kD band) (UniProt O43264).
UniProt O43264, sequence (O43264 whole entry): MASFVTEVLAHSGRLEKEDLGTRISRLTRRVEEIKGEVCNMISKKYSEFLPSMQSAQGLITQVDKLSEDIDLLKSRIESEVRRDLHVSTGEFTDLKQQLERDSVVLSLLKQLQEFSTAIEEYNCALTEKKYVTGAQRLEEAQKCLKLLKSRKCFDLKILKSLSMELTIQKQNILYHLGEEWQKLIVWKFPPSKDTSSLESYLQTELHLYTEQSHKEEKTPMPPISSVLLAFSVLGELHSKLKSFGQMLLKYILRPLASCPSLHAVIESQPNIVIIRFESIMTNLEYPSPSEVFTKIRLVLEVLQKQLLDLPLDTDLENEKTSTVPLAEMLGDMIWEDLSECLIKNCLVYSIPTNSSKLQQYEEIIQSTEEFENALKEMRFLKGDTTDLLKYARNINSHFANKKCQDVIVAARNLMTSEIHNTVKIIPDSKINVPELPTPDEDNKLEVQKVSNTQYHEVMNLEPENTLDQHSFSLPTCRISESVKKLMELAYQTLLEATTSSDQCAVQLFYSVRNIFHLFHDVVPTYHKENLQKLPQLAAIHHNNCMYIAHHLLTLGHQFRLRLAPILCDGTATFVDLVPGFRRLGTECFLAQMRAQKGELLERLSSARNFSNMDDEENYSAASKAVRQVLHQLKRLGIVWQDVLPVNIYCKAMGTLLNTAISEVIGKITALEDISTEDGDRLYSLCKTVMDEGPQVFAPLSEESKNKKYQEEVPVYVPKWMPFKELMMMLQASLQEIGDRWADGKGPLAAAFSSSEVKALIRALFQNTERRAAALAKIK

UniProt Q14203, sequence (Q14203 whole entry): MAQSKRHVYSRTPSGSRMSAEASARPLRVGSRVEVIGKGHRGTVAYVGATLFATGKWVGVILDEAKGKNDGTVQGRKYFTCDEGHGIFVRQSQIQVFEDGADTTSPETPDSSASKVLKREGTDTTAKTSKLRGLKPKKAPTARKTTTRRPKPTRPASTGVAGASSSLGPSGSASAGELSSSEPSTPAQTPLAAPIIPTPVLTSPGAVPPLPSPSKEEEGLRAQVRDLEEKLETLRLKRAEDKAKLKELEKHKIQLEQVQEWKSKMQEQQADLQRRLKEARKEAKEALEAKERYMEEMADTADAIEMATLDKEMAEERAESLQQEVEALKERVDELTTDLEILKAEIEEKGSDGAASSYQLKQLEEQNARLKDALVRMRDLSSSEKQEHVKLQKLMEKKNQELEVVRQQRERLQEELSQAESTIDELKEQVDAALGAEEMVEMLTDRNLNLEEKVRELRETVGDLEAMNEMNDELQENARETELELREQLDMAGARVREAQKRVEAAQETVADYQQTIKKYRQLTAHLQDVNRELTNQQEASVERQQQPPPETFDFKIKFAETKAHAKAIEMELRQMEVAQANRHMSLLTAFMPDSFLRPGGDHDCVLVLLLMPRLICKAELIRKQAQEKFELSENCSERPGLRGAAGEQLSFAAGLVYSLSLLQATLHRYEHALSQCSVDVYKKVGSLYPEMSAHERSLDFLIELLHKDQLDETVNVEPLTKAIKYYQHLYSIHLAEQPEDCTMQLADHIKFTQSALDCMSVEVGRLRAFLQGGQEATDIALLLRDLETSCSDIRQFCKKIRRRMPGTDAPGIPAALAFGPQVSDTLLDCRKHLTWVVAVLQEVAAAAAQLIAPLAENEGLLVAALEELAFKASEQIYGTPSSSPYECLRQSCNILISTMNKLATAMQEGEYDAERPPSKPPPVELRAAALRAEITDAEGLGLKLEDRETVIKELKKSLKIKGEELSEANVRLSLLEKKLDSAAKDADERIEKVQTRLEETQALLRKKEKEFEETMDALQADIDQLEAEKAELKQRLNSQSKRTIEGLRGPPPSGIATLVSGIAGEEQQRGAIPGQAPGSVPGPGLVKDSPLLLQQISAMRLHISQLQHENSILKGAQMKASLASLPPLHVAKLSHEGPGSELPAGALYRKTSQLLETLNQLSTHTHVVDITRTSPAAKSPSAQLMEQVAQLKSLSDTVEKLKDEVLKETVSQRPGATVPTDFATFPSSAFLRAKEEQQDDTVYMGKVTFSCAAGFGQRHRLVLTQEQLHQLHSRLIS

Take “recombinant p150^Glued fragment spanning residues 1-811 (from UniProt P28023 1-811) (domain or fragment)”: the fold reduction in binding against the wild type in assay [1] and in assay [2] was 4 fold in each case.
Consider “recombinant IC-2C fragment spanning residues 1-284 (dephosphorylated ICs) (domain or fragment)”, for which the overlay signal as percent of the endogenous IC band is 83% in assay [3] and 31.1% in assay [4].
Take “recombinant IC-2C fragment (residues 1-284) phosphorylated in vitro (phospho-ICs) (domain or fragment)”: the results for the overlay signal as percent of the endogenous IC band in assay [3] and in assay [4] were 55.4% and 96.2%, respectively. In assay [4], this substance returned a percent increase in binding against dephospho-ICs of 100%.
